Legend:
[1] = biological target: human γD-crystallin C18S/C32S/C41S/C78S (human); test: intact protein electrospray mass spectrometry; Bruker Impact II QTOF electrospray mass spectrometer with HPLC; isotopically averaged mass of monomer and dimer samples
[2] = biological target: human γD-crystallin C18T/C32A/C41A/C78A (human); test: as above

Substance	stoichiometry N [1]	stoichiometry N [2]
human γD-crystallin C18S/C32S/C41S/C78S (natural protein)	2	
human γD-crystallin C18T/C32A/C41A/C78A (natural protein)		2
